Experimental data as given in patent US9192657B2, “Activated protein C variants with normal cytoprotective activity but reduced anticoagulant activity” (The Scripps Research Institute, dated 2015).
Numbering of substitutions follows the chain as printed. Numbers in names are those of the source.

Key:
[1] = biological target: T1, endothelial protein C receptor (EPCR), as in the binding assays (Homo sapiens (Human), UniProt Q9UNN8); assay: apparent Kd; binding to immobilized soluble EPCR and to K293 cells transfected with wtEPCR (format of the value not told)
T1 sequence: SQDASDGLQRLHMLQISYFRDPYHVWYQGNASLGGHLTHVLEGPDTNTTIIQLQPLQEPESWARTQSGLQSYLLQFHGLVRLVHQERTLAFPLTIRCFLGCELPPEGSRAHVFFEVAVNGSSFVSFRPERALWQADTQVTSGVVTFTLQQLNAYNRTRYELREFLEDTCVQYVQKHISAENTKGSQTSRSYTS

[2] = biological target: T2, endothelial protein C receptor (EPCR) on cells (Homo sapiens (Human), UniProt Q9UNN8); assay: cell-based or functional assay
T2 sequence: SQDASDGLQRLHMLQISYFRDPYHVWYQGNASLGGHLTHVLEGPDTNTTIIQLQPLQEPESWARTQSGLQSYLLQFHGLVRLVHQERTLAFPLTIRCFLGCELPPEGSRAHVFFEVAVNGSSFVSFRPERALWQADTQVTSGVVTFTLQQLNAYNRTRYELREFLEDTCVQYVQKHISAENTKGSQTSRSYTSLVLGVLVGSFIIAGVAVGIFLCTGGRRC

[3] = biological target: T3, protease activated receptor-1 (PAR-1) (Homo sapiens (Human), UniProt P25116); assay: cell-based or functional assay
T3 sequence: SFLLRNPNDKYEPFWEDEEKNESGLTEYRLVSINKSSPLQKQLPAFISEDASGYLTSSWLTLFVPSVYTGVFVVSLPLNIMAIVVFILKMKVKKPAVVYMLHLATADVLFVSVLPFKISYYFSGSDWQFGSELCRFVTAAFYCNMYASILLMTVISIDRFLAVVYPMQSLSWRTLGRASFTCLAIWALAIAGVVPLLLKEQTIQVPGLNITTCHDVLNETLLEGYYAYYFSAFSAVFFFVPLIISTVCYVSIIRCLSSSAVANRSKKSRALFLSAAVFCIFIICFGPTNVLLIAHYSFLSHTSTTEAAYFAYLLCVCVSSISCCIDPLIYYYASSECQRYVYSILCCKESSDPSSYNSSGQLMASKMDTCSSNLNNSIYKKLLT

[4] = biological target: T2, endothelial protein C receptor (EPCR) …; assay: cell-based or functional assay; remark: listed apart in the source
[5] = biological target: T3, protease activated receptor-1 (PAR-1); assay: cell-based or functional assay; remark: listed apart in the source
[6] = biological target: T2, endothelial protein C receptor (EPCR) …; assay: cell-based or functional assay; remark: listed apart in the source
[7] = biological target: T3, protease activated receptor-1 (PAR-1); assay: cell-based or functional assay; remark: listed apart in the source
factor Va = factor Va (human, UniProt P12259); assay: cell-based or functional assay

B1: RR229/230AA plus KKK191-193AAA-APC (enzyme)
chain: ANSFLEELRHSSLERECIEEICDFEEAKEIFQNVDDTLAFWSKHVDGDQCLVLPLEHPCASLCCGHGTCIDGIGSFSCDCRSGWEGRFCQREVSFLNCSLDNGGCTHYCLEEVGWRRCSCAPGYKLGDDLLQCHPAVKFPCGRPWKRMEKKRSHLKRDTEDQEDQVDPRLIDGKMTRRGDSPWQVVLLDSAAALACGAVLIHPSWVLTAAHCMDESKKLLVRLGEYDLAAWEKWELDLDIKEVFVHPNYSKSTTDNDIALLHLAQPATLSQTIVPICLPDSGLAERELNQAGQETLVTGWGYHSSREKEAKRNRTFVLNFIKIPVVPHNECSEVMSNMVSENMLCAGILGDRQDACEGDSGGPMVASFHGTWFLVGLVSWGEGCGLLHNYGVYTKVSRYLDWIHGHIRDKEAPQKSWAP
- Kd [1]: 29 nM
- half-maximum inhibition of staurosporine-induced endothelial cell apoptosis (Example 5) [2]: 0.7 nM
- half-maximum inhibition of staurosporine-induced endothelial cell apoptosis (Example 5) [3]: 0.7 nM

B2: R306A/K311A/R312A/R314A-APC (enzyme)
chain: B1 chain with A191K, A192K, A193K, A229R, A230R, R306A, K311A, R312A, R314A
- cytoprotective activity (% wt-APC), staurosporine-induced apoptosis of Eahy926 cells [4]: < 1 % wt-APC
- cytoprotective activity (% wt-APC), staurosporine-induced apoptosis of Eahy926 cells [5]: < 1 % wt-APC

B3: KKK191-193AAA-APC (enzyme)
chain: B1 chain with A229R, A230R
- cytoprotective activity (% wt-APC) [4]: 120 % wt-APC
- cytoprotective activity (% wt-APC) [5]: 120 % wt-APC
- cytoprotective activity (% rwt-APC), from the concentrations for half-maximal inhibition of apoptosis [6]: 114 % rwt-APC
- cytoprotective activity (% rwt-APC), from the concentrations for half-maximal inhibition of apoptosis [7]: 114 % rwt-APC
- anticoagulant activity (% rwt-APC), APTT clotting assay in human plasma (factor Va): 4.6 % rwt-APC
- half-maximum inhibition of staurosporine-induced apoptosis (EA.hy926 cells, Apopercentage dye) [2]: 0.14 nM
- half-maximum inhibition of staurosporine-induced apoptosis (Eahy926 cells, Apopercentage staining) [2]: 0.2 nM
- reduction of activated caspase-3-positive endothelial cells after staurosporine [2]: ~70%
- half-maximum inhibition of staurosporine-induced apoptosis (EA.hy926 cells, Apopercentage dye) [3]: 0.14 nM
- half-maximum inhibition of staurosporine-induced apoptosis (Eahy926 cells, Apopercentage staining) [3]: 0.2 nM
- reduction of activated caspase-3-positive endothelial cells after staurosporine [3]: ~70%
